Assay: SPR affinity of His-tagged PikAIII ACPdd for nickel-NTA sensor chip
Type: binding
Settings: BIAcore 3000, nickel-loaded NTA sensor chip, HBS-P+E pH 7.4

B1: His-tagged PikAIII ACPdd: C-terminal (ACP-side) docking domain of PikAIII, pikromycin PKS (protein)
chain: LAPAEPAPTDWEGRVRRALAELPLDRLRDAGVLDTVLRLTGIEPEPGSGGSDGGAADPGAEPEASIDDLDAEALIRMALGPRNT
modifications: left off: His6, N-terminal, kept
  Kd: 4 ± 0.04 nM
